Results reported in US9096650B2, “Cyclic oligopeptides for binding to a target ligand” (LEXCICON LIMITED, priority 2006, dated 2015).
Bridges are numbered along the chain shown (N, C = ends). [ ]: non-standard residue; d: D form. Gly(decyl) = CCCCCCCCCC[C@H](N)C(=O)O

How the values were obtained:
[1] = system: J774-1 cells (a macrophage cell line); experiment: Suppression of TNF secretion stimulated by LPS in a macrophage cell line, varying epitope order and stereochemistry of associating amino acids (Example 3); type: cell-based; conditions: peptide 50 ug/ml; LPS 1.25 ug/ml; LPS alone 1861.9
Procedure: • 1. Cyclic octapeptides were prepared with the following structures: cyclo(-DF-S-ΣL-R-DF-S-ΣL-R-) cyclo(-DF-S-ΣL-R-DF-S-ΣD-R-) cyclo(-DF-S-ΣD-R-DF-S-ΣD-R-) cyclo(-DF-R-ΣL-S-DF-R-ΣL-S-) cyclo(-DF-R-ΣL-S-DF-R-ΣD-S-) cyclo(-DF-R-ΣD-S-DF-R-ΣD-S-) wherein F, S and R are the epitope-forming amino acids, ΣL represents an associating amino acid which is an L-alpha aminocarboxylic acid in which the associating functional group is a side-chain residue consisting of an unbranched —C10H21; ΣD represents an associating amino acid which is a D-alpha aminocarboxylic acid in which the associating functional group is a side-chain residue consisting an unbranched —C10H21. These cyclic oligopeptides were prepared as solutions in distilled water at a concentration of 1 mg/ml. • 2. J774-1 cells (a macrophage cell line) were plated out in all the wells of a 24-well cluster plates at a seeding density of 3×10^5 cells/ml/well (1 ml RPMI 1640 culture medium per well), and incubated overnight at 37° C. in 5% CO2/air. • 3. The following day, the solutions from step 1 were administered to eighteen wells containing cells in step 2, to give three wells each with a final concentration of 50 ug/ml. The remaining wells were left untreated. The plate was incubated for a further four hours at 37 degC. • 4. Lipopolysaccharide (from E. coli strain 0111 B4) was added to the wells receiving the octapeptide solutions, as well as three of the wells receiving no peptide. The concentration of lipopolysaccharide was 1.25 ug/ml. • 5. The plate was incubated overnight, and the following day the supernatants were assayed for TNF using a commercial ELISA kit.

thrombin [2] = molecular target: thrombin (Homo sapiens, UniProt P00734); experiment: Inhibition of enzyme activity of thrombin, fluorogenic substrate (Example 7); type: biochemical
Procedure: 1. Cyclic oligopeptides of the following structures were synthesised as previously described, and prepared in complexed form with cyclodextrin at concentration of 1 mg/ml on Hanks Balanced Salts Solution using the procedure outlined in example 6. (i) cyclo(-R-E-Σ-S-R-E-R-Σ-S-E-) (ii) cyclo(-A-K-ΣE-Y-K-A-ΣY-E-) (iii) cyclo(-dF-R-C-S-dF-R-C-S-) (iv) cyclo(-dF-S-C-R-dF-S-C-R-)
2. In wells of a […] microplate, 20 ul of thrombin solution (0.01 mg/ml) were dispensed, and mixed with 60 ul of cyclic oligopeptide solution
3. 20 ul of the substrate boc-beta-benzyl-Asp-Pro-Arg-7-amido-4-methylcoumarin hydrochloride (0.01 mg/ml) was added to each well, and the time course of generation of […] was measured.

[3] = system: J774A.1 cells (a macrophage cell line); experiment: Suppression of LPS-stimulated TNF secretion by cyclic oligopeptides containing two different epitopes (Example 8); type: cell-based; conditions: LPS 0.1 ug/ml
Procedure: • 1. Two cyclic oligopeptides were prepared with the following structures: (i) cyclo(-dF-S-Σ-Q-dL-S-Σ-R-) • and (ii) cyclo(-dF-S-Σ-L-dQ-S-Σ-R) • All amino acids are in the L form unless indicated otherwise. • All amino acids are linked by peptide bonds. wherein Q, L, S, R and F represent the epitope-forming amino acids and Σ represents the associating functional group borne on the associating amino acid wherein the associating amino acid is an L-alpha aminocarboxylic acid and the associating functional group is a side-chain residue consisting of a straight aliphatic chain containing ten carbon atoms.
These cyclic oligopeptides were prepared as solutions in transcutol/cyclodextrin, as described in example 4, to give a final concentration of peptide of 1 mg/ml, and cyclodextrin at 20 mg/ml. • 2. J774A.1 cells (a macrophage cell line) were plated out in all the wells of three 24-well cluster plates at a seeding density of 3×10^5 cells/ml/well (1 ml RPMI 1640 culture medium per well), and incubated overnight at 37° C. in 5% CO2/air. • 3. The following day, the solutions from step 1 were administered to wells containing cells in step 2, to give three wells each with a final concentration of 50, 25, 12.5, 6.25 or 3.125 ug/ml of cyclic oligopeptide. Additional wells containing cyclodextrin at 1, 0.5, 0.25, 0.125 and 0.0625 mg/ml were also prepared. The remaining wells were left untreated. The plate was incubated for a further four hours at 37 degC. • 4. Lipopolysaccharide (from E. coli strain 0111 B4) was added to the wells receiving the octapeptide solution, as well as three of the wells receiving no peptide. The final concentration of lipopolysaccharide was 0.1 ug/ml. • 5. The plate was incubated overnight, and the following day the supernatants were assayed for TNF using a commercial ELISA kit.

thrombin [4] = experiment: cell-based or functional assay
[5] = time 2.0 minutes, enzyme alone 770.9, lower = more inhibition
[6] = time 5.0 minutes, enzyme alone 1821.1
[7] = time 10.0 minutes, enzyme alone 2163.5
[8] = time 15.0 minutes, enzyme alone 2253.2
[9] = time 20.0 minutes, enzyme alone 2345.8
[10] = time 25.0 minutes, enzyme alone 2359.0

Molecule	Concentration of TNF [1] [pg/mL]	Inhibition of Thrombin proteolytic activity (Fluorescence Units - Arbitrary Units) at 2.0 minutes; control (enzyme alone) 770.9 (Fluorescence Units - Arbitrary Units) (thrombin [4])	Inhibition of Thrombin proteolytic activity (Fluorescence Units - Arbitrary Units) at 5.0 minutes; control (enzyme alone) 1821.1 (Fluorescence Units - Arbitrary Units) (thrombin [4])	Inhibition of Thrombin proteolytic activity (Fluorescence Units - Arbitrary Units) at 10.0 minutes; control (enzyme alone) 2163.5 (Fluorescence Units - Arbitrary Units) (thrombin [4])	Inhibition of Thrombin proteolytic activity (Fluorescence Units - Arbitrary Units) at 15.0 minutes; control (enzyme alone) 2253.2 (Fluorescence Units - Arbitrary Units) (thrombin [4])	Inhibition of Thrombin proteolytic activity (Fluorescence Units - Arbitrary Units) at 20.0 minutes; control (enzyme alone) 2345.8 (Fluorescence Units - Arbitrary Units) (thrombin [4])	Inhibition of Thrombin proteolytic activity (Fluorescence Units - Arbitrary Units) at 25.0 minutes; control (enzyme alone) 2359.0 (Fluorescence Units - Arbitrary Units) (thrombin [4])	further results
cyclo(-DF-S-ΣD-R-DF-S-ΣD-R-)	1438.0							
cyclo(-DF-R-ΣL-S-DF-R-ΣL-S-)	1990.4							
cyclo(-dF-S-C-R-dF-S-C-R-) (cyclo([dF]SCR[dF]SCR); disulfide 3-7; SMILES N=C(N)NCCC[C@@H]1NC(=O)[C@@H]2CSSC[C@H](NC(=O)[C@H](CO)NC(=O)[C@@H](Cc3ccccc3)NC1=O)C(=O)N[C@@H](CCCNC(=N)N)C(=O)N[C@H](Cc1ccccc1)C(=O)N[C@@H](CO)C(=O)N2) [Example 7 (iv), cysteines in the ring are oxidised to form an internal bridge]								Thrombin proteolytic activity (Fluorescence Units - Arbitrary Units) (thrombin [2]; [5]): 523.2 Arbitrary Units; Thrombin proteolytic activity (Fluorescence Units - Arbitrary Units) (thrombin [2]; [6]): 1205.3 Arbitrary Units; Thrombin proteolytic activity (Fluorescence Units - Arbitrary Units) (thrombin [2]; [7]): 1586.9 Arbitrary Units; Thrombin proteolytic activity (Fluorescence Units - Arbitrary Units) (thrombin [2]; [8]): 1751.7 Arbitrary Units; Thrombin proteolytic activity (Fluorescence Units - Arbitrary Units) (thrombin [2]; [9]): 1843.1 Arbitrary Units; Thrombin proteolytic activity (Fluorescence Units - Arbitrary Units) (thrombin [2]; [10]): 1864.8 Arbitrary Units
cyclo(-dF-R-C-S-dF-R-C-S-) (cyclo([dF]RCS[dF]RCS); disulfide 3-7; SMILES N=C(N)NCCC[C@@H]1NC(=O)[C@@H](Cc2ccccc2)NC(=O)[C@H](CO)NC(=O)[C@@H]2CSSC[C@H](NC1=O)C(=O)N[C@@H](CO)C(=O)N[C@H](Cc1ccccc1)C(=O)N[C@@H](CCCNC(=N)N)C(=O)N2) [Example 7 (iii), cysteines in the ring are oxidised to form an internal bridge]								Thrombin proteolytic activity (Fluorescence Units - Arbitrary Units) (thrombin [2]; [5]): 634.5 Arbitrary Units; Thrombin proteolytic activity (Fluorescence Units - Arbitrary Units) (thrombin [2]; [6]): 1368.8 Arbitrary Units; Thrombin proteolytic activity (Fluorescence Units - Arbitrary Units) (thrombin [2]; [7]): 1786.9 Arbitrary Units; Thrombin proteolytic activity (Fluorescence Units - Arbitrary Units) (thrombin [2]; [8]): 1980.7 Arbitrary Units; Thrombin proteolytic activity (Fluorescence Units - Arbitrary Units) (thrombin [2]; [9]): 2107.4 Arbitrary Units; Thrombin proteolytic activity (Fluorescence Units - Arbitrary Units) (thrombin [2]; [10]): 2159.7 Arbitrary Units
cyclo(-DF-S-ΣL-R-DF-S-ΣD-R-)	987.1							
cyclo(-dF-S-Σ-L-dQ-S-Σ-R) [Example 8 (ii)]								Thrombin proteolytic activity (Fluorescence Units - Arbitrary Units) (thrombin [2]; [5]): 410.8 Arbitrary Units; Thrombin proteolytic activity (Fluorescence Units - Arbitrary Units) (thrombin [2]; [6]): 816.4 Arbitrary Units; Thrombin proteolytic activity (Fluorescence Units - Arbitrary Units) (thrombin [2]; [7]): 1189.4 Arbitrary Units; Thrombin proteolytic activity (Fluorescence Units - Arbitrary Units) (thrombin [2]; [8]): 1398.6 Arbitrary Units; Thrombin proteolytic activity (Fluorescence Units - Arbitrary Units) (thrombin [2]; [9]): 1592.1 Arbitrary Units; Thrombin proteolytic activity (Fluorescence Units - Arbitrary Units) (thrombin [2]; [10]): 1673.2 Arbitrary Units; TNF concentration ([3]; peptide 3.125 ug/ml, 2856 = maximum detectable limit): 2648 ± 43 pg/mL; TNF concentration ([3]; peptide 6.25 ug/ml): 2325 ± 67 pg/mL; TNF concentration ([3]; peptide 12.5 ug/ml): 1748 ± 20 pg/mL; TNF concentration ([3]; peptide 25 ug/ml): 1437 ± 85 pg/mL; TNF concentration ([3]; peptide 50 ug/ml): 1081 ± 142 pg/mL
cyclo(-DF-R-ΣL-S-DF-R-ΣD-S-)	1625.2							
cyclo(-DF-R-ΣD-S-DF-R-ΣD-S-)	1573.3							
cyclo(RE[Gly(decyl)]SRER[Gly(decyl)]SE) (SMILES CCCCCCCCCC[C@@H]1NC(=O)[C@H](CCCNC(=N)N)NC(=O)[C@H](CCC(=O)O)NC(=O)[C@H](CCCNC(=N)N)NC(=O)[C@H](CO)NC(=O)[C@H](CCCCCCCCCC)NC(=O)[C@H](CCC(=O)O)NC(=O)[C@H](CCCNC(=N)N)NC(=O)[C@H](CCC(=O)O)NC(=O)[C@H](CO)NC1=O) [cyclo(-R-E-Σ-S-R-E-R-Σ-S-E-)]		411	816	1190	1400	1590	1670	
cyclo(AK[Gly(decyl)]EYKA[Gly(decyl)]YE) (SMILES CCCCCCCCCC[C@@H]1NC(=O)[C@H](C)NC(=O)[C@H](CCCCN)NC(=O)[C@H](Cc2ccc(O)cc2)NC(=O)[C@H](CCC(=O)O)NC(=O)[C@H](CCCCCCCCCC)NC(=O)[C@H](CCCCN)NC(=O)[C@H](C)NC(=O)[C@H](CCC(=O)O)NC(=O)[C@H](Cc2ccc(O)cc2)NC1=O) [cyclo(-A-K-ΣE-Y-K-A-ΣY-E-)]		411	816	1190	1400	1590	1670	
cyclo([dF]RCS[dF]RCS) (disulfide 3-7; SMILES N=C(N)NCCC[C@@H]1NC(=O)[C@@H](Cc2ccccc2)NC(=O)[C@H](CO)NC(=O)[C@@H]2CSSC[C@H](NC1=O)C(=O)N[C@@H](CO)C(=O)N[C@H](Cc1ccccc1)C(=O)N[C@@H](CCCNC(=N)N)C(=O)N2) [cyclo(-dF-R-C-S-dF-R-C-S-)]		634	1370	1790	1980	2110	2160	
cyclo([dF]SCR[dF]SCR) (disulfide 3-7; SMILES N=C(N)NCCC[C@@H]1NC(=O)[C@@H]2CSSC[C@H](NC(=O)[C@H](CO)NC(=O)[C@@H](Cc3ccccc3)NC1=O)C(=O)N[C@@H](CCCNC(=N)N)C(=O)N[C@H](Cc1ccccc1)C(=O)N[C@@H](CO)C(=O)N2) [cyclo(-dF-S-C-R-dF-S-C-R-)]		523	1210	1590	1750	1840	1860	
